Source: patent US20150344570A1 (published 2015)

T1: FcγRIIa R (human, UniProt P12318 34-217)
T1 construct: extracellular domain; Soluble His-tagged extracellular domain expressed in FreeStyle293 cells; analyte in Biacore; also called FcgRIIa R; FcgRIIaR; not shown: His tag attached to the C terminus
T1 sequence (looked up): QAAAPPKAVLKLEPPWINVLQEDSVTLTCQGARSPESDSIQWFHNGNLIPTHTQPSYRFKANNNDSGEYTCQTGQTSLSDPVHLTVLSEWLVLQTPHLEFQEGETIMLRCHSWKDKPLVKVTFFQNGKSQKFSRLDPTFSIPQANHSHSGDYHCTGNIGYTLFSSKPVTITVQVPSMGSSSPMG

T2: FcγRIIb (human, UniProt P31994 43-217)
T2 construct: extracellular domain; also called FcgRIIb; 2b
T2 sequence (looked up): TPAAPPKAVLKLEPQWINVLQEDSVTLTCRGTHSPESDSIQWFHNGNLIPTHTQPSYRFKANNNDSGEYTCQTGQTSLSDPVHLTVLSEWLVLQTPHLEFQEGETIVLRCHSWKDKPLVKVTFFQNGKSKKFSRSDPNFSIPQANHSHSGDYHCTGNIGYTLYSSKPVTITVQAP

T3: FcγRIIb (human, UniProt P31994 43-217)
T3 construct: extracellular domain; Soluble His-tagged extracellular domain expressed in FreeStyle293 cells; analyte in Biacore; also called FcgRIIb; 2b; not shown: His tag attached to the C terminus
T3 sequence (looked up): T2 sequence (looked up)

B1: GpH7-A5/GpH7-B3 variant D265_13S/GpL16-k0 (antibody, human IgG1, kappa)
heavy 1: not shown
heavy 2: not shown
light: DIVMTQSPLSLPVTPGEPASISCQASESLVHSNRNTYLHWYLQKPGQSPQLLIYKVSNRFSGVPDRFSGSGSGTDFTLKISRVEAEDVGVYYCSQNTHVPPTFGQGTKVEIERTVAAPSVFIFPPSDEQLKSGTASVVCLLNNFYPREAKVQWKVDNALQSGNSQESVTEQDSKDSTYSLSSTLTLSKADYEKHKVYACEVTHQGLSSPVTKSFNRGEC
notes: mutation in the GpH7-B3 chain only; also called He Ab
B2: GpH7-A5/GpH7-B3 variant D265_12R/GpL16-k0 (antibody, human IgG1, kappa)
heavy 1: not shown
heavy 2: not shown
light: B1 light
notes: as for B1
B3: GpH7-A5/GpH7-B3 variant D265_04F/GpL16-k0 (antibody, human IgG1, kappa)
heavy 1: not shown
heavy 2: not shown
light: B1 light
notes: as for B1
B4: GpH7-A5/GpH7-B3 variant D265_08L/GpL16-k0 (antibody, human IgG1, kappa)
heavy 1: not shown
heavy 2: not shown
light: B1 light
notes: as for B1
B5: GpH7-A5/GpH7-B3 variant D265_20W/GpL16-k0 (antibody, human IgG1, kappa)
heavy 1: not shown
heavy 2: not shown
light: B1 light
notes: as for B1
B6: GpH7-A5/GpH7-B3 variant P329_19Q/GpL16-k0 (antibody, human IgG1, kappa)
heavy 1: not shown
heavy 2: not shown
light: B1 light
notes: Heterodimerized anti-glypican-3 IgG1 antibody; alteration only in the GpH7-B3 H chain; position in EU numbering; also called He Ab
B7: GpH7-A5/GpH7-B3 variant S298_20W/GpL16-k0 (antibody, human IgG1, kappa)
heavy 1: not shown
heavy 2: not shown
light: B1 light
notes: as for B6
B8: GpH7-A5/GpH7-B3 variant S298_10E/GpL16-k0 (antibody, human IgG1, kappa)
heavy 1: not shown
heavy 2: not shown
light: B1 light
notes: as for B6
B9: GpH7-A5/GpH7-B3 variant S298_12R/GpL16-k0 (antibody, human IgG1, kappa)
heavy 1: not shown
heavy 2: not shown
light: B1 light
notes: as for B6
B10: GpH7-A5/GpH7-B3 variant P331_01G/GpL16-k0 (antibody, human IgG1, kappa)
heavy 1: not shown
heavy 2: not shown
light: B1 light
notes: as for B6
B11: GpH7-A5/GpH7-B3 variant S298_15Y/GpL16-k0 (antibody, human IgG1, kappa)
heavy 1: not shown
heavy 2: not shown
light: B1 light
notes: as for B6
B12: GpH7-A5/GpH7-B3 variant S298_18N/GpL16-k0 (antibody, human IgG1, kappa)
heavy 1: not shown
heavy 2: not shown
light: B1 light
notes: as for B6
B13: GpH7-A5/GpH7-B3 variant Y300_18N/GpL16-k0 (antibody, human IgG1, kappa)
heavy 1: not shown
heavy 2: not shown
light: B1 light
notes: as for B6
B14: GpH7-A5/GpH7-B3 variant S298_16H/GpL16-k0 (antibody, human IgG1, kappa)
heavy 1: not shown
heavy 2: not shown
light: B1 light
notes: as for B6
B15: GpH7-A5/GpH7-B3 variant S298_19Q/GpL16-k0 (antibody, human IgG1, kappa)
heavy 1: not shown
heavy 2: not shown
light: B1 light
notes: as for B6
B16: GpH7-A5/GpH7-B3 variant S298_11K/GpL16-k0 (antibody, human IgG1, kappa)
heavy 1: not shown
heavy 2: not shown
light: B1 light
notes: as for B6
B17: GpH7-A5/GpH7-B3 variant Y300_12R/GpL16-k0 (antibody, human IgG1, kappa)
heavy 1: not shown
heavy 2: not shown
light: B1 light
notes: as for B6
B18: GpH7-A5/GpH7-B3 variant S298_14T/GpL16-k0 (antibody, human IgG1, kappa)
heavy 1: not shown
heavy 2: not shown
light: B1 light
notes: as for B6

biological target: T4, FcγRIIIa (human, UniProt P08637 17-208); experiment: SPR; He/Con_3a divided by He/Con_2b (FcγRIIIa against FcγRIIb)
T4 construct: extracellular domain; also called FcgRIIIa; 3a
T4 sequence (P08637 17-208): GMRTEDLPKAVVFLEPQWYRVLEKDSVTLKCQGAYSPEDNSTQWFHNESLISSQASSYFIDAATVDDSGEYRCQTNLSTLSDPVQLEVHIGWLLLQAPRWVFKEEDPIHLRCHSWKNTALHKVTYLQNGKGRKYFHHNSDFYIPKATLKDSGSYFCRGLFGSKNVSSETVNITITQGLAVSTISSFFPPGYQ

| He_3a/2b (IIIa/IIb) | Binder |
| --- | --- |
| 0.35 ratio | B1 |
| 0.21 ratio | B2 |
| 0 ratio | B3 |
| 0 ratio | B4 |
| -0.48 ratio | B5 |

biological target: T1, FcγRIIa R; experiment: ratio of He/Con_2aR to He/Con_2b (binding to FcγRIIb as reference); SPR

| He_2aR/2b (IIaR/IIb) | Binder |
| --- | --- |
| 1.34 | B6 |
| 1.35 | B7 |
| 1.37 | B8 |
| 1.48 | B9 |
| 1.34 | B10 |
| 1.29 | B11 |
| 1.41 | B12 |
| 1.21 | B13 |
| 1.39 | B14 |
| 1.3 | B15 |
| 1.55 | B16 |
| 1.34 | B17 |
| 1.26 | B18 |

biological target: T4, FcγRIIIa; experiment: SPR (Biacore), relative binding

| He/Con_3a | Binder |
| --- | --- |
| 3.9 % of GpH7-A5/GpH7-B3/GpL16-k0 | B1 |
| 3.2 % of GpH7-A5/GpH7-B3/GpL16-k0 | B2 |
| 0 % of GpH7-A5/GpH7-B3/GpL16-k0 | B3 |
| 0 % of GpH7-A5/GpH7-B3/GpL16-k0 | B4 |
| -0.5 % of GpH7-A5/GpH7-B3/GpL16-k0 | B5 |

biological target: T2, FcγRIIb; experiment: SPR (Biacore), relative binding

| He/Con_2b | Binder |
| --- | --- |
| 11.3 % of GpH7-A5/GpH7-B3/GpL16-k0 | B1 |
| 15 % of GpH7-A5/GpH7-B3/GpL16-k0 | B2 |
| 3.2 % of GpH7-A5/GpH7-B3/GpL16-k0 | B3 |
| 4.6 % of GpH7-A5/GpH7-B3/GpL16-k0 | B4 |
| 1.1 % of GpH7-A5/GpH7-B3/GpL16-k0 | B5 |

biological target: T3, FcγRIIb; experiment: SPR (Biacore), antibody captured via antigen peptide, FcγR as analyte

| He/Con_2b (IIb binding relative to GpH7-A5/GpH7-B3/GpL16-k0) | Binder |
| --- | --- |
| 30.7 % of control (control = 100) | B6 |
| 41.1 % of control (control = 100) | B7 |
| 47.6 % of control (control = 100) | B8 |
| 57.8 % of control (control = 100) | B9 |
| 45.4 % of control (control = 100) | B10 |
| 61.4 % of control (control = 100) | B11 |
| 48.1 % of control (control = 100) | B12 |
| 82.7 % of control (control = 100) | B13 |
| 63.5 % of control (control = 100) | B14 |
| 73.3 % of control (control = 100) | B15 |
| 61.3 % of control (control = 100) | B16 |
| 41.2 % of control (control = 100) | B17 |
| 77.9 % of control (control = 100) | B18 |

biological target: T1, FcγRIIa R; experiment: as above

| He/Con_2aR (IIaR binding relative to GpH7-A5/GpH7-B3/GpL16-k0) | Binder |
| --- | --- |
| 41.1 % of control (control = 100) | B6 |
| 55.4 % of control (control = 100) | B7 |
| 65.1 % of control (control = 100) | B8 |
| 85.3 % of control (control = 100) | B9 |
| 61 % of control (control = 100) | B10 |
| 79.1 % of control (control = 100) | B11 |
| 68 % of control (control = 100) | B12 |
| 100 % of control (control = 100) | B13 |
| 88.5 % of control (control = 100) | B14 |
| 95 % of control (control = 100) | B15 |
| 95.1 % of control (control = 100) | B16 |
| 55.1 % of control (control = 100) | B17 |
| 98.5 % of control (control = 100) | B18 |
